Consider 78 sequences from the supplement of paper PMC10126150.

± gives the standard deviation of the averaged measurements.
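Further: ATP exposure 15 min at 22 °C before imaging.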

The data set deals with ATP. The experiment in a line: switch fluorescence ratio, 500 uM ATP over buffer (Cy3 cluster intensity, sum of 5 cycles each) (fold (ratio)); higher = stronger signal-on switching upon ATP binding; sequences stand for … in TCGTCGGCAGCGTCAGATGTGTATAAGAGACAGTTTTTTTTTTTTTTTTTTTTTTTTT…TC. To be noted: aptamer strand: ATP DNA aptamer (quencher-CACCTGGGGGAGTATTGCGGAGGAAGG + anchor), 100 nM annealed; ATP concentration: 500 uM. An outline of the steps: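 Five buffer/ATP imaging cycles were run on Cy3-labelled switching-strand clusters on a modified Illumina MiSeq flow-cell, with NaOH stripping and re-annealing between cycles. In each cycle, clusters annealed to 100 nM quencher-labelled ATP aptamer were imaged in selection buffer, then after 15 min with 500 uM ATP at 22 °C. Per cluster, the fluorescence ratio is summed target-cycle over summed buffer-cycle Cy3 intensity, averaged per switch-domain sequence. Only clusters within 100-1000 RFU were kept.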
As for GACAGGAATT, the switch fluorescence ratio was 1.029 ± 0.008.
For the sequence GACTTATCTA, the switch fluorescence ratio is 1.016 ± 0.0073.
Consider CCTTTCACTC, for which the switch fluorescence ratio is 1.124 ± 0.0035.
As to GCGGGTGGGA, the switch fluorescence ratio was determined as 1.02 ± 0.034.
In the case of AGGGATAGCT, the switch fluorescence ratio turned out to be 0.967 ± 0.006.
As to TTTTGCACGC, the switch fluorescence ratio is 1.28 ± 0.2.
As for AGAAGCAGG, the figure is 1.21 ± 0.26; as for ATGATCAATT, 1.02 ± 0.049; as for CGGTGGGAGA, 1.023 ± 0.0078.
As for TTTAATGTAT, the figure is 1.19 ± 0.3.
As for GTTAGGGGTG, the figure is 1.02 ± 0.023; as for TTATGTCAAA, 1.01 ± 0.025; as for TGTAGGGGGG, 0.973 ± 0.034.
As to AAGTGTTATT, the switch fluorescence ratio amounted to 0.992 ± 0.026.
As for TTCGGGGCTT, the figure is 0.983 ± 0.035; as for CCAGGTAGAG, 1.32 ± 0.13; as for TGGGGCTATT, 1.02 ± 0.045.
TCATGTAGAA: the switch fluorescence ratio was found to be 1.01 ± 0.02.
To CGAAGATCGA belongs 0.982 ± 0.042; to CTTCCTATTG, 1.08 ± 0.046.
Take TCTGATAGTT: the switch fluorescence ratio turned out to be 0.998 ± 0.021.
On to AAGATGAAT, for which the switch fluorescence ratio amounted to 0.975 ± 0.04.
Regarding CTTCTTTTGG, the switch fluorescence ratio is 0.996 ± 0.032.
In the case of TGGGGCTAAG, the switch fluorescence ratio was 1.01 ± 0.034.
To TCCGGGTGTA belongs 1.14 ± 0.22; to GAGTGGTCGC, 1.002 ± 0.0014.
For AATATTTCGC, the switch fluorescence ratio was 1.02 ± 0.018.
To GGGCAAGGTG belongs 1.21 ± 0.12.
To GATAGGCGTG belongs 1.01 ± 0.029; to TGGCCCGGGG, 0.988 ± 0.031.
To TTGTCACGG belongs 0.986 ± 0.035; to AGTTTTGTTC, 1.01 ± 0.019.
For GGTTTAGGAG, the switch fluorescence ratio stood at 1.01 ± 0.062.
As to ACTTAAGTTT, the switch fluorescence ratio was 1.01 ± 0.07.
As for CGGTGTATCG, the figure is 0.983 ± 0.027; as for CCCGCAGTGT, 4.3 ± 1.4.
To GTGGTGTTGT belongs 0.97 ± 0.037.
As for GGTTATAGTT, the figure is 1.01 ± 0.011.
As to TTGATTTTTG, the switch fluorescence ratio was found to be 1.01 ± 0.03.
Regarding AGCGGGTTG, the switch fluorescence ratio came to 1.02 ± 0.017.
Turning to CCGCGTTATG, the switch fluorescence ratio was found to be 1.67 ± 0.078.
To AAAAGGAAAG belongs 0.957 ± 0.037; to TGACATGGTG, 0.976 ± 0.018.
To TATTAATTCT belongs 0.972 ± 0.036.
As for AGCGTCTCCG, the figure is 1.024 ± 0.006; as for GGGAGGCAGA, 0.989 ± 0.065.
For CAATTTTCGG, the switch fluorescence ratio was 0.989 ± 0.022.
ATGTGGGGTT: the switch fluorescence ratio came out at 1.01 ± 0.014.
To ACCAGGTGTG belongs 3.53 ± 0.34.
As for TGTTATAATC, the figure is 1.08 ± 0.064.
For CGACTGGGGG, the switch fluorescence ratio was 0.957 ± 0.026.
Turning to TTAGGGATAC, the switch fluorescence ratio worked out at 1.88 ± 0.88.
Consider GGTCCGGAGC, for which the switch fluorescence ratio was determined as 1.1577 ± 0.00066.
ATAGGTTGTT: the switch fluorescence ratio was found to be 0.973 ± 0.016.
On to AGGGGAGTTG, for which the switch fluorescence ratio is 0.995 ± 0.027.
Take CGGGGGAGTG: the switch fluorescence ratio was 0.975 ± 0.025.
To GGTTAGGGAC belongs 1.04 ± 0.04; to CTTAAATTTA, 1.02 ± 0.022; to TTGGCATGTT, 1.005 ± 0.0093.
TGAAGGACCG: the switch fluorescence ratio came to 0.952 ± 0.026.
For the sequence CGCTCTTGTA, the switch fluorescence ratio is 0.991 ± 0.012.
Consider TACGTACGCC, for which the switch fluorescence ratio came to 1.57 ± 0.073.
Take TCAGGGCGAA: the switch fluorescence ratio was found to be 0.995 ± 0.016.
To TTTTGGTAGT belongs 1.03 ± 0.063.
As for GACGGCTTGG, the figure is 1.02 ± 0.025.
To GTTCCCTTGA belongs 1.02 ± 0.018; to ACTATGTGGT, 0.9971 ± 0.0096; to ACGCTGGGGA, 0.993 ± 0.016.
As for ATCTCGGGTG, the switch fluorescence ratio was 1.01 ± 0.043.
To AAATCGAGCT belongs 1.04 ± 0.049; to CAGGGGGTGT, 1.03 ± 0.032.
As for GATTTGGGGA, the figure is 0.988 ± 0.028; as for TGTGACGGAC, 1.12 ± 0.015; as for CAGGCTAAGA, 1.026 ± 0.0047.
To GGTCGGTGCG belongs 0.9914 ± 0.0098.
Consider CGTATAGGAT, for which the switch fluorescence ratio came to 1.01 ± 0.036.
For the sequence AACTTTACTC, the switch fluorescence ratio stood at 1.55 ± 0.095.
To TCGGGTAGTG belongs 1.01 ± 0.026.
